From article PMC11982451 (The Journal of Biological Chemistry, 2025)

Molecular target: T1, 2CARD domain of human RIG-I, residues 1-200, recombinant (human, UniProt O95786 1-200)
T1 sequence (looked up): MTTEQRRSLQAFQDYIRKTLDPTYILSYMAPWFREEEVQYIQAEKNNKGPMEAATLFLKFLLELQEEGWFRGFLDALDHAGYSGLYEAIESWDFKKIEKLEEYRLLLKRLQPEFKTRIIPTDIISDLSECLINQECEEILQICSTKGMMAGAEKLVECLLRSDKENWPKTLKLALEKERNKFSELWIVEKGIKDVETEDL
Assay: NMR titration

binding result: binds
B1: PRYSPRY domain (PSpry) of human TRIM25, residues 433-630, recombinant (domain or fragment, UniProt Q14258 433-630, looked up)
chain: STSLKAKVLETFLAKSRPELLEYYIKVILDYNTAHNKVALSECYTVASVAEMPQNYRPHPQRFTYCSQVLGLHCYKKGIHYWEVELQKNNFCGVGICYGSMNRQGPESRLGRNSASWCVEWFNTKISAWHNNVEKTLPSTKATRVGVLLNCDHGFVIFFAVADKVHLMYKFRVDFTEALYPAFWVFSAGATLSICSPK
